Reference: US20180155451A1 (published 2018)

T1: FcγRIIa H (human, UniProt P12318 34-217)
T1 construct: extracellular domain; also called FcgRIIa H type; 2aH; not shown: His tag at the C terminus
T1 sequence (looked up): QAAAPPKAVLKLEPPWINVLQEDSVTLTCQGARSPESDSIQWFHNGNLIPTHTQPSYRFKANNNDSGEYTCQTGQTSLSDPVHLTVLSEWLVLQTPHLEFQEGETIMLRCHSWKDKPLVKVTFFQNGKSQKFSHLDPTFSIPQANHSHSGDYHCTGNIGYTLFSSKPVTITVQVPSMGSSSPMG


target: T1, FcγRIIa H; experiment: SPR Biacore, relative binding

Row | He/Con_2aH | Binder
1 | 123 % of GpH7-A5/GpH7-B3/GpL16-k0 (=100) | GpH7-A5/GpH7-B3 variant L328_13S/GpL16-k0 (antibody, human IgG1, kappa, also called He Ab L328_13S) heavy 1: not shown heavy 2: not shown light: DIVMTQSPLSLPVTPGEPASISCQASESLVHSNRNTYLHWYLQKPGQSPQLLIYKVSNRFSGVPDRFSGSGSGTDFTLKISRVEAEDVGVYYCSQNTHVPPTFGQGTKVEIERTVAAPSVFIFPPSDEQLKSGTASVVCLLNNFYPREAKVQWKVDNALQSGNSQESVTEQDSKDSTYSLSSTLTLSKADYEKHKVYACEVTHQGLSSPVTKSFNRGEC
2 | 116 % of GpH7-A5/GpH7-B3/GpL16-k0 (=100) | GpH7-A5/GpH7-B3 variant L328_14T/GpL16-k0 (antibody, human IgG1, kappa, also called He Ab L328_14T) heavy 1: not shown heavy 2: not shown light: DIVMTQSPLSLPVTPGEPASISCQASESLVHSNRNTYLHWYLQKPGQSPQLLIYKVSNRFSGVPDRFSGSGSGTDFTLKISRVEAEDVGVYYCSQNTHVPPTFGQGTKVEIERTVAAPSVFIFPPSDEQLKSGTASVVCLLNNFYPREAKVQWKVDNALQSGNSQESVTEQDSKDSTYSLSSTLTLSKADYEKHKVYACEVTHQGLSSPVTKSFNRGEC
3 | 103 % of GpH7-A5/GpH7-B3/GpL16-k0 (=100) | GpH7-A5/GpH7-B3 variant Q295_05P/GpL16-k0 (antibody, human IgG1, kappa, also called He Ab Q295_05P) heavy 1: not shown heavy 2: not shown light: DIVMTQSPLSLPVTPGEPASISCQASESLVHSNRNTYLHWYLQKPGQSPQLLIYKVSNRFSGVPDRFSGSGSGTDFTLKISRVEAEDVGVYYCSQNTHVPPTFGQGTKVEIERTVAAPSVFIFPPSDEQLKSGTASVVCLLNNFYPREAKVQWKVDNALQSGNSQESVTEQDSKDSTYSLSSTLTLSKADYEKHKVYACEVTHQGLSSPVTKSFNRGEC
4 | 117 % of GpH7-A5/GpH7-B3/GpL16-k0 (=100) | GpH7-A5/GpH7-B3 variant S324_06M/GpL16-k0 (antibody, human IgG1, kappa, also called He Ab S324_06M) heavy 1: not shown heavy 2: not shown light: DIVMTQSPLSLPVTPGEPASISCQASESLVHSNRNTYLHWYLQKPGQSPQLLIYKVSNRFSGVPDRFSGSGSGTDFTLKISRVEAEDVGVYYCSQNTHVPPTFGQGTKVEIERTVAAPSVFIFPPSDEQLKSGTASVVCLLNNFYPREAKVQWKVDNALQSGNSQESVTEQDSKDSTYSLSSTLTLSKADYEKHKVYACEVTHQGLSSPVTKSFNRGEC
5 | 102 % of GpH7-A5/GpH7-B3/GpL16-k0 (=100) | GpH7-A5/GpH7-B3 variant Q295_07I/GpL16-k0 (antibody, human IgG1, kappa, also called He Ab Q295_07I) heavy 1: not shown heavy 2: not shown light: DIVMTQSPLSLPVTPGEPASISCQASESLVHSNRNTYLHWYLQKPGQSPQLLIYKVSNRFSGVPDRFSGSGSGTDFTLKISRVEAEDVGVYYCSQNTHVPPTFGQGTKVEIERTVAAPSVFIFPPSDEQLKSGTASVVCLLNNFYPREAKVQWKVDNALQSGNSQESVTEQDSKDSTYSLSSTLTLSKADYEKHKVYACEVTHQGLSSPVTKSFNRGEC
6 | 107 % of GpH7-A5/GpH7-B3/GpL16-k0 (=100) | GpH7-A5/GpH7-B3 variant P271_01G/GpL16-k0 (antibody, human IgG1, kappa, also called He Ab P271_01G) heavy 1: not shown heavy 2: not shown light: DIVMTQSPLSLPVTPGEPASISCQASESLVHSNRNTYLHWYLQKPGQSPQLLIYKVSNRFSGVPDRFSGSGSGTDFTLKISRVEAEDVGVYYCSQNTHVPPTFGQGTKVEIERTVAAPSVFIFPPSDEQLKSGTASVVCLLNNFYPREAKVQWKVDNALQSGNSQESVTEQDSKDSTYSLSSTLTLSKADYEKHKVYACEVTHQGLSSPVTKSFNRGEC
7 | 120 % of GpH7-A5/GpH7-B3/GpL16-k0 (=100) | GpH7-A5/GpH7-B3 variant S267_02A/GpL16-k0 (antibody, human IgG1, kappa, also called He Ab S267_02A) heavy 1: not shown heavy 2: not shown light: DIVMTQSPLSLPVTPGEPASISCQASESLVHSNRNTYLHWYLQKPGQSPQLLIYKVSNRFSGVPDRFSGSGSGTDFTLKISRVEAEDVGVYYCSQNTHVPPTFGQGTKVEIERTVAAPSVFIFPPSDEQLKSGTASVVCLLNNFYPREAKVQWKVDNALQSGNSQESVTEQDSKDSTYSLSSTLTLSKADYEKHKVYACEVTHQGLSSPVTKSFNRGEC
8 | 114 % of GpH7-A5/GpH7-B3/GpL16-k0 (=100) | GpH7-A5/GpH7-B3 variant S239_09D/GpL16-k0 (antibody, human IgG1, kappa, also called He Ab S239_09D) heavy 1: not shown heavy 2: not shown light: DIVMTQSPLSLPVTPGEPASISCQASESLVHSNRNTYLHWYLQKPGQSPQLLIYKVSNRFSGVPDRFSGSGSGTDFTLKISRVEAEDVGVYYCSQNTHVPPTFGQGTKVEIERTVAAPSVFIFPPSDEQLKSGTASVVCLLNNFYPREAKVQWKVDNALQSGNSQESVTEQDSKDSTYSLSSTLTLSKADYEKHKVYACEVTHQGLSSPVTKSFNRGEC
9 | 102 % of GpH7-A5/GpH7-B3/GpL16-k0 (=100) | GpH7-A5/GpH7-B3 variant S324_02A/GpL16-k0 (antibody, human IgG1, kappa, also called He Ab S324_02A) heavy 1: not shown heavy 2: not shown light: DIVMTQSPLSLPVTPGEPASISCQASESLVHSNRNTYLHWYLQKPGQSPQLLIYKVSNRFSGVPDRFSGSGSGTDFTLKISRVEAEDVGVYYCSQNTHVPPTFGQGTKVEIERTVAAPSVFIFPPSDEQLKSGTASVVCLLNNFYPREAKVQWKVDNALQSGNSQESVTEQDSKDSTYSLSSTLTLSKADYEKHKVYACEVTHQGLSSPVTKSFNRGEC
